Data taken from patent publication US20140274782A1, “AFFINITY REAGENTS AND METHODS FOR DETECTION, PURIFICATION, AND PROTEOMIC ANALYSIS OF METHYLATED PROTEINS” (The Board of Trustees of the Leland Stanford Junior …, priority 2013, published 2014).

Key:
[1] = molecular target: BLCAP, G9a-methylated (human) (UniProt P62952); experiment: ProtoArray methylated with G9a SET domain
[2] = molecular target: CSF3, G9a-methylated (human) (UniProt P09919); experiment: ProtoArray methylated with G9a SET domain
[3] = molecular target: DNTT, G9a-methylated (human) (UniProt P04053); experiment: ProtoArray methylated with G9a SET domain
[4] = molecular target: SAR1B, G9a-methylated (human) (UniProt Q9Y6B6); experiment: ProtoArray methylated with G9a SET domain
[5] = molecular target: SCGB2A2, G9a-methylated (human) (UniProt Q13296); experiment: ProtoArray methylated with G9a SET domain
[6] = molecular target: SMAP1, G9a-methylated (human) (UniProt Q8IYB5); experiment: ProtoArray methylated with G9a SET domain
[7] = molecular target: AP1S1, G9a-methylated (human) (UniProt P61966); experiment: ProtoArray, G9a array SNR minus GST array SNR
[8] = molecular target: BHMT, G9a-methylated (human) (UniProt Q93088); experiment: ProtoArray, G9a array SNR minus GST array SNR
[9] = molecular target: C1QTNF6, G9a-methylated (human) (UniProt Q9BXI9); experiment: ProtoArray, G9a array SNR minus GST array SNR
[10] = molecular target: CA13, G9a-methylated (human) (UniProt Q8N1Q1); experiment: ProtoArray, G9a array SNR minus GST array SNR
[11] = molecular target: CAB39L, G9a-methylated (human) (UniProt Q9H9S4); experiment: ProtoArray, G9a array SNR minus GST array SNR
[12] = molecular target: CDC2, G9a-methylated (human) (UniProt P06493); experiment: ProtoArray, G9a array SNR minus GST array SNR
[13] = molecular target: CDK5RAP3, G9a-methylated (human) (UniProt Q96JB5); experiment: ProtoArray, G9a array SNR minus GST array SNR
[14] = molecular target: CNTD1, G9a-methylated (human) (UniProt Q8N815); experiment: ProtoArray, G9a array SNR minus GST array SNR
[15] = molecular target: CRB3, G9a-methylated (human) (UniProt Q9BUF7); experiment: ProtoArray, G9a array SNR minus GST array SNR
[16] = molecular target: CTXN1, G9a-methylated (human) (UniProt P60606); experiment: ProtoArray, G9a array SNR minus GST array SNR
[17] = molecular target: DGKA, G9a-methylated (human) (UniProt P23743); experiment: ProtoArray, G9a array SNR minus GST array SNR
[18] = molecular target: DIRAS1, G9a-methylated (human) (UniProt O95057); experiment: ProtoArray, G9a array SNR minus GST array SNR
[19] = molecular target: GAL, G9a-methylated (human) (UniProt P22466); experiment: ProtoArray, G9a array SNR minus GST array SNR
[20] = molecular target: GNPTAB, G9a-methylated (human) (UniProt Q3T906); experiment: ProtoArray, G9a array SNR minus GST array SNR
[21] = molecular target: GPR108, G9a-methylated (human) (UniProt Q9NPR9); experiment: ProtoArray, G9a array SNR minus GST array SNR
[22] = molecular target: GYPC, G9a-methylated (human) (UniProt P04921); experiment: ProtoArray, G9a array SNR minus GST array SNR
[23] = molecular target: HIC2, G9a-methylated (human) (UniProt Q96JB3); experiment: ProtoArray, G9a array SNR minus GST array SNR
[24] = molecular target: HS3ST1, G9a-methylated (human) (UniProt O14792); experiment: ProtoArray, G9a array SNR minus GST array SNR
[25] = molecular target: KRR1, G9a-methylated (human) (UniProt Q13601); experiment: ProtoArray, G9a array SNR minus GST array SNR
[26] = molecular target: LTC4S, G9a-methylated (human) (UniProt Q16873); experiment: ProtoArray, G9a array SNR minus GST array SNR
[27] = molecular target: LYPLAL1, G9a-methylated (human) (UniProt Q5VWZ2); experiment: ProtoArray, G9a array SNR minus GST array SNR
[28] = molecular target: MAGEH1, G9a-methylated (human) (UniProt Q9H213); experiment: ProtoArray, G9a array SNR minus GST array SNR
[29] = molecular target: NME7, G9a-methylated (human) (UniProt Q9Y5B8); experiment: ProtoArray, G9a array SNR minus GST array SNR
[30] = molecular target: PHF20L1, G9a-methylated (human) (UniProt A8MW92); experiment: ProtoArray, G9a array SNR minus GST array SNR
[31] = molecular target: PPIL5, G9a-methylated (human) (UniProt Q96L50); experiment: ProtoArray, G9a array SNR minus GST array SNR
[32] = molecular target: RAB33B, G9a-methylated (human) (UniProt Q9H082); experiment: ProtoArray, G9a array SNR minus GST array SNR
[33] = molecular target: RAB7B, G9a-methylated (human) (UniProt Q96AH8); experiment: ProtoArray, G9a array SNR minus GST array SNR
[34] = molecular target: SAR1B, G9a-methylated (human) (UniProt Q9Y6B6); experiment: ProtoArray, G9a array SNR minus GST array SNR
[35] = molecular target: SCGB2A2, G9a-methylated (human) (UniProt Q13296); experiment: ProtoArray, G9a array SNR minus GST array SNR
[36] = molecular target: SERPINB2, G9a-methylated (human) (UniProt P05120); experiment: ProtoArray, G9a array SNR minus GST array SNR
[37] = molecular target: SH3YL1 (hit 65), G9a-methylated (human) (UniProt Q96HL8); experiment: ProtoArray, G9a array SNR minus GST array SNR
[38] = molecular target: TTC27, G9a-methylated (human) (UniProt Q6P3X3); experiment: ProtoArray, G9a array SNR minus GST array SNR
[39] = molecular target: UBE2D2, G9a-methylated (human) (UniProt P62837); experiment: ProtoArray, G9a array SNR minus GST array SNR
[40] = molecular target: WDR45, G9a-methylated (human) (UniProt Q9Y484); experiment: ProtoArray, G9a array SNR minus GST array SNR
[41] = molecular target: ZRANB1, G9a-methylated (human) (UniProt Q9UGI0); experiment: ProtoArray, G9a array SNR minus GST array SNR

Sequence of SCGB2A2, G9a-methylated (human) (Q13296 19-93 limits assumed): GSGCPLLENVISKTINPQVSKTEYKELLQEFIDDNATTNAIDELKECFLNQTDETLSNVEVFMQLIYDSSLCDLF
Sequence of SAR1B, G9a-methylated (human) (Q9Y6B6 whole entry, the tested form may be a part): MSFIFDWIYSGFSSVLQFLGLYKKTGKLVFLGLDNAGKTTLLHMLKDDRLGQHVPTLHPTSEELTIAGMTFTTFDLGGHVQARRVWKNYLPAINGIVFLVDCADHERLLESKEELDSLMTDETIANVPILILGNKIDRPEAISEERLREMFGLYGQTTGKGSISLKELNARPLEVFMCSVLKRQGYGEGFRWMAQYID
Sequence of CDC2, G9a-methylated (human) (P06493 whole entry): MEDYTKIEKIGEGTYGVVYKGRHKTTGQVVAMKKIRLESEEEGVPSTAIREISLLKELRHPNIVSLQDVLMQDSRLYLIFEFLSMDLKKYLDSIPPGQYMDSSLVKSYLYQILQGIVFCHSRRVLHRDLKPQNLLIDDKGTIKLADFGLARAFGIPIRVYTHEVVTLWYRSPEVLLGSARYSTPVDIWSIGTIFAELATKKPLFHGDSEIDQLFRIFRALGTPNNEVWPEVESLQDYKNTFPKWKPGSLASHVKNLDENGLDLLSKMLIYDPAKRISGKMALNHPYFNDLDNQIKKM
Sequence of SH3YL1 (hit 65), G9a-methylated (human) (Q96HL8 whole entry): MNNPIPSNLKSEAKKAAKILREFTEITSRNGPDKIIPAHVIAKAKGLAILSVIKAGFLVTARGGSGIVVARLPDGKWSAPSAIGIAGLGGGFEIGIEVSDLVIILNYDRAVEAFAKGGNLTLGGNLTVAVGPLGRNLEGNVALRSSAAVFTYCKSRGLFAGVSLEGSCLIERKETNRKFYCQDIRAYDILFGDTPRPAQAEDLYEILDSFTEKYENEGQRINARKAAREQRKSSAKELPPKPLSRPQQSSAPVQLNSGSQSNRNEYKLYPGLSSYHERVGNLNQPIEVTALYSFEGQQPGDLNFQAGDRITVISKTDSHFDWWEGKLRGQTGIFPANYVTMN
Sequence of BHMT, G9a-methylated (human) (Q93088 whole entry): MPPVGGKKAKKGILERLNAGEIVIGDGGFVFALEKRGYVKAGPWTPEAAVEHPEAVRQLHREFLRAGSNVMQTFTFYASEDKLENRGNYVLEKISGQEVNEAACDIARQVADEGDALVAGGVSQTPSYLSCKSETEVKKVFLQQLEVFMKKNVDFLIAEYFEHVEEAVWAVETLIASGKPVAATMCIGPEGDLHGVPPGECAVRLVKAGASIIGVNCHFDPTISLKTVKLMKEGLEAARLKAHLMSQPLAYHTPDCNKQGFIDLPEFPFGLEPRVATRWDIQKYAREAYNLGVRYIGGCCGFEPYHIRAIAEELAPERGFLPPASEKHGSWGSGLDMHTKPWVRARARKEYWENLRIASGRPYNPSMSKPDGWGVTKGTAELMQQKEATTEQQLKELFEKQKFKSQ
Sequence of CNTD1, G9a-methylated (human) (Q8N815 whole entry): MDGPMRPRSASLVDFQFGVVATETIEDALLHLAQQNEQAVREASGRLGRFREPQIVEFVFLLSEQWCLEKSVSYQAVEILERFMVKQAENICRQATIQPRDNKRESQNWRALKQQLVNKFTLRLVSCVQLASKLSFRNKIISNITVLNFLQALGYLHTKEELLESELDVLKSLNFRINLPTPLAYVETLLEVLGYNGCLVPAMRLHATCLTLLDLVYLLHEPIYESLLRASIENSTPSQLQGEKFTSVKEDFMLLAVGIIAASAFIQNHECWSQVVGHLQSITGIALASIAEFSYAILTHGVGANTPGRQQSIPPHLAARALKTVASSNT
Sequence of NME7, G9a-methylated (human) (Q9Y5B8 37-376 limits assumed): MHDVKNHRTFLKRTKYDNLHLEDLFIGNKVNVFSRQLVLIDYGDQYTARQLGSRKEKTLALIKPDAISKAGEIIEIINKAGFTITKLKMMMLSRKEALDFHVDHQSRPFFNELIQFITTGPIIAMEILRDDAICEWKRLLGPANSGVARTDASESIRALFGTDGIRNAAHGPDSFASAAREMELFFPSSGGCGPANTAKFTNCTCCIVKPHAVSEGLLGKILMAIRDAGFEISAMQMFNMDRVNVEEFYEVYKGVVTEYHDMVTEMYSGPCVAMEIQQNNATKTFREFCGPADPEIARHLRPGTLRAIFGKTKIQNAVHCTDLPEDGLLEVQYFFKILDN
Sequence of PPIL5, G9a-methylated (human) (Q96L50 whole entry): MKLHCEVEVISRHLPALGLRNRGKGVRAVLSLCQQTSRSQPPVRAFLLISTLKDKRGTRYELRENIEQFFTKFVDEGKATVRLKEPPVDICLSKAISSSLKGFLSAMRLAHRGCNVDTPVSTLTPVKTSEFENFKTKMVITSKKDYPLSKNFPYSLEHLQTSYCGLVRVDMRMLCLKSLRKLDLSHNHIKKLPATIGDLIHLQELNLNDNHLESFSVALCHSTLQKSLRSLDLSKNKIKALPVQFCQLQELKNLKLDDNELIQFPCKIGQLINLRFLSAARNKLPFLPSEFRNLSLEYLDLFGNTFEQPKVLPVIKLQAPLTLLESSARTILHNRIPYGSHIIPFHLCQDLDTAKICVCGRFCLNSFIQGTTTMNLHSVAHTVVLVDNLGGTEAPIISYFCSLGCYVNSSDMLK
Sequence of HS3ST1, G9a-methylated (human) (O14792 21-307 limits assumed): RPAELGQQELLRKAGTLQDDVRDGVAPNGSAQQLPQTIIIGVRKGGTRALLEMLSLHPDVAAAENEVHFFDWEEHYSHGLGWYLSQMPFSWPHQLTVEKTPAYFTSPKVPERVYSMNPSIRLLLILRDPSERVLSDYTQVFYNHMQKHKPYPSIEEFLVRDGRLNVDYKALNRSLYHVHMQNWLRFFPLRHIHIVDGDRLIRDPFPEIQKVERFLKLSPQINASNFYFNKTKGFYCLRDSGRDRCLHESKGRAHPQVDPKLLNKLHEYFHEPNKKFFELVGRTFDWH
Sequence of CSF3, G9a-methylated (human) (P09919 31-207 limits assumed): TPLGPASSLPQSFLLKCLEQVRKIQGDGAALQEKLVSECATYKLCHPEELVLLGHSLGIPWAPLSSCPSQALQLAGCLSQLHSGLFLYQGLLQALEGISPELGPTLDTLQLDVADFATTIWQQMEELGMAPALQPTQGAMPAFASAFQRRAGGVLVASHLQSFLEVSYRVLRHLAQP
Sequence of SERPINB2, G9a-methylated (human) (P05120 whole entry): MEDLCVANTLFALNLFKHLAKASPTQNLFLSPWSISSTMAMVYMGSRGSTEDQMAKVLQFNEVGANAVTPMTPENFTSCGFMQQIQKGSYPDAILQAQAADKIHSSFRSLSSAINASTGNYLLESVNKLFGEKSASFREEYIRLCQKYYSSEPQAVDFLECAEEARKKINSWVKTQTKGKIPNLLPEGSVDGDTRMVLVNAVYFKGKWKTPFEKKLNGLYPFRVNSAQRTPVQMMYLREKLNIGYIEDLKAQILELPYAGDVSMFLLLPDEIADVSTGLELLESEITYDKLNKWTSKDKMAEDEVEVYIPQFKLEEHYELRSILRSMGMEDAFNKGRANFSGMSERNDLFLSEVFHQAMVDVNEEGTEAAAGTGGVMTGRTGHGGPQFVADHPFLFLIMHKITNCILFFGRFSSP
Sequence of KRR1, G9a-methylated (human) (Q13601 whole entry): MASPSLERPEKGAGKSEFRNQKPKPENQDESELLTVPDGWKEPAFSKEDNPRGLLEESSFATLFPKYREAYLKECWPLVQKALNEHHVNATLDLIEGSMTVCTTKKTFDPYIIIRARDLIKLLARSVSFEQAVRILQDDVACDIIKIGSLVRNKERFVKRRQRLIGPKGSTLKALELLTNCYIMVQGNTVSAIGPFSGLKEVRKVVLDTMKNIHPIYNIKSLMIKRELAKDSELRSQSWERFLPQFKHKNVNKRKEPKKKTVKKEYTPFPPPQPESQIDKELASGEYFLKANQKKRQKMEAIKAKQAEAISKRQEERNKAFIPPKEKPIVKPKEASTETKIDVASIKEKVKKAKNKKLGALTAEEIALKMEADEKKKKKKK
Sequence of BLCAP, G9a-methylated (human) (P62952 whole entry, the tested form may be a part): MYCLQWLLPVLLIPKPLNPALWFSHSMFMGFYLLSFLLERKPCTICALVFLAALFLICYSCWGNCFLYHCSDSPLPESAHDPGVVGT
Sequence of DGKA, G9a-methylated (human) (P23743 whole entry): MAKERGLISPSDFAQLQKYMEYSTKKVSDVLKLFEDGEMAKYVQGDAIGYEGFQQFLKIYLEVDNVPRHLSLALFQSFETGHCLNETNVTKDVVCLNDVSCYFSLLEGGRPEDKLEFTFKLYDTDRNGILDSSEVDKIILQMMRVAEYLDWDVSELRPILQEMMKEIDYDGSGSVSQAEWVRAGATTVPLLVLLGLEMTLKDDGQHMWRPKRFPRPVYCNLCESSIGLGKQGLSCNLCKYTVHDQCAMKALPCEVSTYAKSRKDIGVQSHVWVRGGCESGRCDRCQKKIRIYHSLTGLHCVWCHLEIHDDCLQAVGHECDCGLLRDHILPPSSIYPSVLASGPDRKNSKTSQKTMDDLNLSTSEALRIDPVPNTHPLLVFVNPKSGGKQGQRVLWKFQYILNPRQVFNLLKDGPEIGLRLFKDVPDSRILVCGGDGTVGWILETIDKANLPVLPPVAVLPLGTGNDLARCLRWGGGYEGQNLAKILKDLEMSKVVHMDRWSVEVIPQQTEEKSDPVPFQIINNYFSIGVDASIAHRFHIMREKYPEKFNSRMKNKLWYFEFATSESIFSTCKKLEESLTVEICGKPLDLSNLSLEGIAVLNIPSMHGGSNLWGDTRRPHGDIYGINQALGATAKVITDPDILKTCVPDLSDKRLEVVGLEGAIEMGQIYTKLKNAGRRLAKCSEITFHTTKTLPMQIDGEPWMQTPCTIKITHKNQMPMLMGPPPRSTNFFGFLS
Sequence of C1QTNF6, G9a-methylated (human) (Q9BXI9 47-278 limits assumed): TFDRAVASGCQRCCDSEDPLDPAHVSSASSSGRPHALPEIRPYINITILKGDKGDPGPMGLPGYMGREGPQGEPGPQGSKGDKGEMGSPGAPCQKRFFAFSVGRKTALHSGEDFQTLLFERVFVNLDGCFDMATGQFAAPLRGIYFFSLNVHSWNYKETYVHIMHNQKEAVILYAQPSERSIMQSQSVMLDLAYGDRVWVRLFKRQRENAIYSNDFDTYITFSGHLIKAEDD
Sequence of GYPC, G9a-methylated (human) (P04921 other isoform, or with tags, fused parts or gaps limits assumed): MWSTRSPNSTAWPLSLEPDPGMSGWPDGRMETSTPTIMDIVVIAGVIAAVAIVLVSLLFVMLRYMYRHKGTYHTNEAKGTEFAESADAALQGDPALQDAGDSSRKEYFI

## 3× Flag-3×MBT (designed binder)
[1]
  G9a Average SNR: 26.4
[2]
  G9a Average SNR: 19
[3]
  G9a Average SNR: 49.9
[4]
  G9a Average SNR: 19.8
[5]
  G9a Average SNR: 14.8
[6]
  G9a Average SNR: 21.5
[7]
  G9a-GST: 15.4
[8]
  G9a-GST: 15.2
[9]
  G9a-GST: 16.8
[10]
  G9a-GST: 12.2
[11]
  G9a-GST: 14.5
[12]
  G9a-GST: 26
[13]
  G9a-GST: 14.1
[14]
  G9a-GST: 12.2
[15]
  G9a-GST: 15.5
[16]
  G9a-GST: 18.7
[17]
  G9a-GST: 14.3
[18]
  G9a-GST: 28.2
[19]
  G9a-GST: 13.2
[20]
  G9a-GST: 15.3
[21]
  G9a-GST: 20
[22]
  G9a-GST: 13.3
[23]
  G9a-GST: 16.1
[24]
  G9a-GST: 13.2
[25]
  G9a-GST: 29.3
[26]
  G9a-GST: 12.9
[27]
  G9a-GST: 15.6
[28]
  G9a-GST: 42.9
[29]
  G9a-GST: 13.6
[30]
  G9a-GST: 20.4
[31]
  G9a-GST: 12.4
[32]
  G9a-GST: 20.2
[33]
  G9a-GST: 13
[34]
  G9a-GST: 19.3
[35]
  G9a-GST: 13.8
[36]
  G9a-GST: 17.3
[37]
  G9a-GST: 16.2
[38]
  G9a-GST: 20.2
[39]
  G9a-GST: 37.6
[40]
  G9a-GST: 15.2
[41]
  G9a-GST: 13.6
